What was measured:
[1] = target: T1, full length VWF (Homo sapiens, UniProt P04275); experiment: ELISA binding to immobilized full length VWF; details: scFv A1 5 µg ml^-1; ristocetin 0.75 mg ml^-1
T1 construct: coated with purified full length VWF or isolated A1 domain
Method: (§1) ELISA wells (Thermo Fisher Scientific) were coated with purified full length VWF or isolated A1 domain at 0.1, 1 and 10 µg ml^-1 in the presence of ristocetin (0.75 mg ml^1) and blocked with 2% BSA. Next, the coated wells were incubated with 5 µg ml^-1 of scFv A1 or sheep anti-VWF antibody followed by incubation with an HRP-conjugated secondary antibody (Anti-his HRP for scFv A1, Donkey anti-sheep HRP antibody for sheep anti-VWF antibody) (1:4,000). Readings were measured at 450 nm on a BMG Optima multi-well reader.

[2] = target: VWF (Homo sapiens, UniProt P04275); experiment: VWF binding in the presence or absence of ristocetin (FIG. 7)
[3] = system: VWF-GPIb binding (plasma VWF, isolated platelets); experiment: Ristocetin-induced platelet agglutination test (RIPA); assay type: cell-based, human
Method: Platelet-poor plasma (PPP; source of plasma VWF) was prepared by centrifugation of citrated whole blood at 300 × g for 10 min to obtain platelet rich plasma (PRP) and further centrifugation of the PRP fraction at 1700 × g for 7 min. Isolated platelets (3 × 10^8/ml) suspended in platelet wash buffer (4.3 mM K2HPO4, 4.3 mM Na2HPO4, 24.3 mM NaH2PO4, 113 mM NaCl, 5.5 mM D-glu cose, and 10 mM theophylline, pH 6.5) were centrifuged at 1500 × g for 7 min. The washed platelets were subsequently resuspended at the same concentration in modified Tyrode’s buffer (10 mM Hepes, 12 mM NaHCO3, 137 mM NaCl, 2.7 mM KCI and 5 mM glucose, pH 7.3) containing calcium (1 mM), magnesium (1 mM) and apyrase (0.02 U ml^-1) (ADPase activity). Isolated platelets (150, 300 µL at 3 × 10^8/ml) and platelet poor plasma (50 µl) were incubated with 2, 2.5, 4, 5, 40 and 80 µg ml^-1 scFv A1 and the corresponding concentration of control scFv, or Tyrode’s buffer was used to neutralise any other aggregation mechanisms beside the VWF A1-GPlbα interaction. Platelet agglutination in response to 0.75 mg mL^-1 ristocetin (Helena Biosciences, Gateshead, UK) and in the presence of the αIIbβ3 (GPIIb/IIIa) blocker Integrilin was performed for 10 min on an AggRam system from Helena Laboratories, USA

[4] = target: T2, isolated VWF A1 domain (Homo sapiens, UniProt P04275); experiment: ELISA binding to isolated VWF A1 domain; details: scFv A1 5 µg ml^-1
T2 construct: coated with purified full length VWF or isolated A1 domain
Method: as §1

B1: scFv A1: single chain antibody combining variable heavy chain of mAb CR1 with variable light chain of mAb CR2; VH SEQ ID NO: 11, VL SEQ ID NO: 10 (antibody, V domains shown)
VH: QVQLQQPGAELVRPGASVKLSCKASGYSFTNYWMSWVKQRPGQGLEWIGMIHPSDSDTRLNQKFKDKATLTVDKSSSTAYMQLSSPTSEDSAGLLLCKKFEGWLPVLLGPRHHSHSLLS
VL: DIELTQSPASLAVSLGQSYRASCKSVSTSGYSYMHWNQQKPGQPPRLLIYLVSNLESGVPARFSGSGSGTDFTLNIHPVEEEDAATYYCQHIRELTRSEGDQAEINR
modifications: scFv linker; Mouse
- Binding to immobilized full length VWF [1]: did not bind
- Mechanism of VWF binding (dependence on conformation) [2]: conformational-dependent binding
- Ristocetin-induced platelet agglutination ([3]; plasma VWF preincubated with scFv A1 and ristocetin prior to platelet binding): minor inhibitory effect
- Ristocetin-induced agglutination of isolated platelets ([3]; scFv A1 up to 80 µg ml^-1, ristocetin 0.75 mg ml^-1, plasma VWF present): did not result in delayed or reduced agglutination
- Binding to isolated VWF A1 domain [4]: did not bind
